Experimental findings from the nanobody polyreactivity screen of Harvey et al. (2022) are described below.

The nature of this series: yeast display, Sf9 membrane polyspecificity reagent, FACS + sequencing; frameworks hold sequencing errors. In a few lines:
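After 36–48 hours of galactose induction, yeast (Saccharomyces cerevisiae BJ5465) displaying a synthetic nanobody library were stained at 4 °C for 1 hour with 10% biotinylated, detergent-solubilized Sf9 membrane reagent. Streptavidin microbeads enriched the stained cells before FACS sorting into low and high (top ~1%) gates on anti-HA and streptavidin fluorescence. Each clone's polyreactivity label reflects its gate of origin.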
“QVQLVESGGGLVQAGGSLRLSCAASGSTFRKYAMGWYRQAPGTEREFVAAITWSTGTTYYADSVKGRFTISRDNAKNTVYLQMNSLKPEDTAVYYCAADSQPPHELYESIEHESWGQGTQVTVSS”: the “polyreactivity (PSR sort gate)” value was “low polyreactivity”.

Consider “QVQLVESGGGLVQAGGSLRLSCAASGSTFRKYVMGWYRQAPGKERELDAGITSRGGSTYYADSVKGRFTISRDNAKNTVYLQMNSLKPEDSAVYYCAKRAYGTALYRGYGYWGQGTQVPVSS”, for which the “polyreactivity (PSR sort gate)” value is given as “low polyreactivity”.

In the case of “QVQLVESGGGLVQAGGSLRLSCAASGSTFRLNAMGWYRQAPGKERELVAAISRSTGTTHYADSVKGRFTISRDNAKNTVYLQMNSLKPEDTAVYYCATDRAKWHKNGDLGYWGQGTQVTVSS”, the “polyreactivity (PSR sort gate)” value was “low polyreactivity”.

With “QVQLVESGGGLVQAGGSLRLSCAASGSTFRLNAMGWYRQAPGKERELVAAISWTGGSTYYADSVKGRFTISRDNAKNTVYLQMNSLKPEDTAVYYCAADWWQGTSHYWGGAYNYWGQGTQVTVSS”, the “polyreactivity (PSR sort gate)” value was “low polyreactivity”.

Regarding “QVQLVESGGGLVQAGGSLRLSCAASGSTFRLYAMGCYRPAPGKERELVAVISRSGGRTYADSVKGRFTISRDNAKNTVYLQMNSLKPEDTAVYYCAKARHKSPTYTHDSWGQGTQVTVSS”, the “polyreactivity (PSR sort gate)” value is “high polyreactivity”.

As for “QVQLVESGGGLVQAGGSLRLSCAASGSTFRLYAMGWYRQAPGKERELVAAISSRGGTTYYADSVKGRFTISRDNAKNTVYLQMNSLKPEDTAVYYCAAPRASQYGDDYWGHGTQVTVSS”, the “polyreactivity (PSR sort gate)” value is recorded as “high polyreactivity”.

Consider “QVQLVESGGGLVQAGGSLRLSCAASGSTFRLYAMGWYRQAPGKERELVAVISRSGGRTYADSVKGRFTISRDNAKNTVYLQMNSLKPEDTAVYYCAKARHKSPTYTHDSWGQGTQVTVSS”, for which the “polyreactivity (PSR sort gate)” value was “high polyreactivity”.

Regarding “QVQLVESGGGLVQAGGSLRLSCAASGSTFRNYAMGWSRQAPGKERELVAAISGSGGRTKYADSVKGRFTISRDNAKNTVYLQMNSLKPEDTAVYYWNARFPDWALSEISHSTTYGLWGQGTLVTVSS”, the “polyreactivity (PSR sort gate)” value is “low polyreactivity”.

Regarding “QVQLVESGGGLVQAGGSLRLSCAASGSTFRPYAMGWYREAPGKERELVAAITSTGGSTYYADSVKGRFTISRDNAKNSVSLQMNSLKPDDTAVYYCAAPLVRYAGPYDYWGQGTQVTVSS”, the “polyreactivity (PSR sort gate)” value is listed as “low polyreactivity”.

With “QVQLVESGGGLVQAGGSLRLSCAASGSTFRPYAMGWYRQAPGKERELLAAISSGDTTDYADSVKGRFTISRDNAKNTVYLQMNSLKPEDNAVYYCATVFNDLTVYEYWSRFDYWGPGTQVTVSS”, the “polyreactivity (PSR sort gate)” value was “low polyreactivity”.

As for “QVQLVESGGGLVQAGGSLRLSCAASGSTFRPYAMGWYRQAPGKERELVAAITSTGGSTYYADSVKGRFTISRDNAKNTVYLQMNSLKPEDTAVYYCAAPLVRYAGPYDYWGQGTQVTVSS”, the “polyreactivity (PSR sort gate)” value is listed as “low polyreactivity”.

In the case of “QVQLVESGGGLVQAGGSLRLSCAASGSTFRQYAMGWYRQAPGKERELVAAIRGRDGSTYYADSVKGRFTISRDNAKNTVYLQMNSLKPEDTAVYYCNVVARGVSPGYDYWGQGTQVTVSS”, the “polyreactivity (PSR sort gate)” value was “high polyreactivity”.

For “QVQLVESGGGLVQAGGSLRLSCAASGSTFRQYAMGWYRQAPGKERELVAAISSGGRTNYADSVKGRFTISRDNAKNTVYLQMNSLKPEDTAVYYCASDIRRRVPVRGYYYWGQGTQVTVSS”, the “polyreactivity (PSR sort gate)” value was “high polyreactivity”.

“QVQLVESGGGLVQAGGSLRLSCAASGSTFRRYAMGWYRQAPGKERELVAAIRQRGTSTYYADSVKGRFTISRDNAKNTVYLQMNSLKPEDTAVYYCAAGPSLWLFNSWGQGTQVTVSS”: the “polyreactivity (PSR sort gate)” value was “high polyreactivity”.

As to “QVQLVESGGGLVQAGGSLRLSCAASGSTFRRYAMGWYRQAPGKERELVAAITSTDVNTYYADSVKGRFTISRDNAKNTVYLQMNSLKPEDTAVYYCAAVYLGYYGVSDMEYWGQGTQVTVSS”, the “polyreactivity (PSR sort gate)” value is “high polyreactivity”.

In the case of “QVQLVESGGGLVQAGGSLRLSCAASGSTFRRYAMGWYRQAPGKERELVAAITTRGGSTYYADSVKGRFTISRDNAKNSVYLQMNSLKPEDTAVYYCARDYSTYLRTAGDYWGQGTQVTVSS”, the “polyreactivity (PSR sort gate)” value is listed as “low polyreactivity”.

For the sequence “QVQLVESGGGLVQAGGSLRLSCAASGSTFRRYAMGWYRQAPGKERELVAGISKRGVSTYYADSVKGRFTISRDNAKNTVYLQMNSLKPEDTAVYYCAAEWTVSKYDYWGQGTQVTVSS”, the “polyreactivity (PSR sort gate)” value is “low polyreactivity”.

Take “QVQLVESGGGLVQAGGSLRLSCAASGSTFRRYAMGWYRQAPGKEREMVAGITYGSTYYADSVKGRFTISRDNAKNTVYLLMNSLKPEDTAVYYCAADLSYTSVHGYRSDTLMDYWGQGTQVTVSS”: the “polyreactivity (PSR sort gate)” value is “low polyreactivity”.

As to “QVQLVESGGGLVQAGGSLRLSCAASGSTFRSNAMGWYRQAPGKERELVAGISRRGGSTYYADSVTGRVTISRDNAKNTVYLQMNSLKPEDTAVDYCAASSRSFIRVYYWGQGTQVTVSS”, the “polyreactivity (PSR sort gate)” value was “high polyreactivity”.

As to “QVQLVESGGGLVQAGGSLRLSCAASGSTFRSYAMGWYRQAPGKERELVAVISKRGGSTYYADSVKGRFTISRDNAKNTVYLQMNSLKPEDTAVYYCAARPGPYWTVTFRSPKYYYWGQGTQVTVSS”, the “polyreactivity (PSR sort gate)” value is “high polyreactivity”.

In the case of “QVQLVESGGGLVQAGGSLRLSCAASGSTFRSYAMGWYRQAPGKERESVARISYRTGSTYYADSVKGRFTISRDNAKNTVYLQMNSLEPEDTAVYYCATRGSYVGGLYDYWGQGTQVTVSS”, the “polyreactivity (PSR sort gate)” value is “high polyreactivity”.

For “QVQLVESGGGLVQAGGSLRLSCAASGSTFRSYAMGWYRQSPGKERELVAAISTRGGSTYYADSVKGRFTISRDNAKNTVYLQMNSLKPEDTAVYYCAVEIVWAYGPTDYYYWGQGTQVTVSS”, the “polyreactivity (PSR sort gate)” value is reported as “high polyreactivity”.

Turning to “QVQLVESGGGLVQAGGSLRLSCAASGSTFRSYDMGWYRQAPGKERELVAASSSGGSTNYADSVKGRFTISRDNAKNTVYLQMNSLKPEDTAVYYCNAEYPYYWFKYDYWGQGTQVTVSS”, the “polyreactivity (PSR sort gate)” value is reported as “low polyreactivity”.

Consider “QVQLVESGGGLVQAGGSLRLSCAASGSTFRSYNMGWYRQAPGKERELVADINGTGGSTYYADSVKGRFTISRDNAKNTVYLQMNSLKPEDTAVYYCAADGYFRTVTSGWALRMGYWGQGTQVTVSS”, for which the “polyreactivity (PSR sort gate)” value is “high polyreactivity”.

In the case of “QVQLVESGGGLVQAGGSLRLSCAASGSTFRTNAMGWYRQAPGKERELVAAISGSGSRTYYADSVKGRFTISRDNAKNTVYLQMNSLKPEDTAVYYCAAVYGGVGYRRREYWGQGTQVTVSS”, the “polyreactivity (PSR sort gate)” value was “high polyreactivity”.

Take “QVQLVESGGGLVQAGGSLRLSCAASGSTFRTNAMGWYRQAPGKERELVAAITYRAGNTYYADSVKGRFTISRDNAKNTVYLQMNSLKPEDTAVYYCNAESLSFPARGRAYRYYYWGQGTQVTVSS”: the “polyreactivity (PSR sort gate)” value is given as “high polyreactivity”.

“QVQLVESGGGLVQAGGSLRLSCAASGSTFRTYAIGWYRQAPAKERELVAAISRSGGRTYYADSVKGRFTISRDNAMNTVYLQMNSLKPEDTAVYYCAVGDTYTYDYWGQGTQVTVSS”: the “polyreactivity (PSR sort gate)” value is “high polyreactivity”.

On to “QVQLVESGGGLVQAGGSLRLSCAASGSTFRTYTMGWYRQAPGKERELVAAGGGTYYADSVKGRFTISRDNAKNTVYLQMNSLKPEDTAVYYCAAGLPIHGLRGYEYDYWGQGTQVTVSS”, for which the “polyreactivity (PSR sort gate)” value is “low polyreactivity”.

Regarding “QVQLVESGGGLVQAGGSLRLSCAASGSTFRVNAMAWYRHAPGKERELVADITNGGSTYYADSVKGRFTISRDNAKNTVYLQMNSLKPEDTAVYYCNARPSYLRFKWYSYDYWGQGTQVTVSS”, the “polyreactivity (PSR sort gate)” value is “high polyreactivity”.

As for “QVQLVESGGGLVQAGGSLRLSCAASGSTFRVNAMGWYRQAPGKERELVAAIRKSGGSTYADSVKGRFTISRDNAKNTVYLQMNSLKPEDTAVYYCNADATAWLGWDDNYWGQGSQVTVSS”, the “polyreactivity (PSR sort gate)” value is “low polyreactivity”.

As for “QVQLVESGGGLVQAGGSLRLSCAASGSTFRVNAMGWYRQAPGKERELVAAIRSSGGTTYYADSVQGRFTISRDNAKNTVYLQMNSLKPEDTAVYYCAAEGYRSWRGLRSRYYYWGQGTQVTVSS”, the “polyreactivity (PSR sort gate)” value was “high polyreactivity”.

“QVQLVESGGGLVQAGGSLRLSCAASGSTFRVYAMGWYRQAPGKERELVATISWGGGRTYYADSVKGRFTISRDNAKNTVYLQMNSLKPEDTAVYYCAADQRWTTDQPTAGDYWGQGTQVTVSS”: the “polyreactivity (PSR sort gate)” value is “low polyreactivity”.

“QVQLVESGGGLVQAGGSLRLSCAASGSTFRVYGMGWYRQAPGKERELDAAIRWIGGRTYYADSVKGRFTISRDNAKNTVYLQMNSLKAEDTAVYYCNARAGPVRFDYWGQGTQVTVSS”: the “polyreactivity (PSR sort gate)” value was “low polyreactivity”.

As for “QVQLVESGGGLVQAGGSLRLSCAASGSTFRWNAMGWYRQAPGKERELVAAISGNGGSTYYADSVKGRFTISRDNAKNTVYLHMNTLKPEYNAVYYCAARGYFCSSYKYDYRGQGTQVTVSS”, the “polyreactivity (PSR sort gate)” value is reported as “high polyreactivity”.

Regarding “QVQLVESGGGLVQAGGSLRLSCAASGSTFRWNAMGWYRQAPGKERELVASITSGGSTNYADSVKGRFTISRDNAKNTVYLQMNSLKPEDTAVYYCNADVRRSTYYVWLYDYWGQGTQVTVSS”, the “polyreactivity (PSR sort gate)” value was “low polyreactivity”.

As to “QVQLVESGGGLVQAGGSLRLSCAASGSTFRWNAMGWYRQAPWKERELVAAITWSGGRTYYADSVKGRFTISRDNAKNTVYLQMNSLKPEDTAVYYCAAVRGPEHWYDYYYWGQGTQVTVSS”, the “polyreactivity (PSR sort gate)” value is “high polyreactivity”.

Take “QVQLVESGGGLVQAGGSLRLSCAASGSTFRWYAMGWYRQAPGKERELVAAISWSGSTTYYADSVKGRFTISRDNAKNTVYLQMNSLKPEDTAVYYCAAEVVFFGWNYDYWGQGTQVTVSS”: the “polyreactivity (PSR sort gate)” value is given as “high polyreactivity”.

As to “QVQLVESGGGLVQAGGSLRLSCAASGSTFRWYTMGWYRQAPGKERELVAAITASGGSTFYADSVKGRFTISRDNAKNTVYLQMNSLKPEDTAVYYCAAVNRPRPRRSDYWGQGTQVTVSS”, the “polyreactivity (PSR sort gate)” value is reported as “high polyreactivity”.

“QVQLVESGGGLVQAGGSLRLSCAASGSTFRYAMGWYRQAPGKERELVATISSGGSTNYADSVKGRFTISRDNAKNTVYLQMNSLKPEDTAVYYCAADPYGGDNDKGDYWGQGTQVTVSS”: the “polyreactivity (PSR sort gate)” value is “low polyreactivity”.

Consider “QVQLVESGGGLVQAGGSLRLSCAASGSTFRYNALGWYRQAPGKERELVAAINYRGGSTYYADSVKGRFTISRDNAKNTVYLQMNSLKPEDTAVYYCNAVLPLAKYEYDSWGHGTQVTVSS”, for which the “polyreactivity (PSR sort gate)” value is on record as “high polyreactivity”.
